According to patent publication US20250382355A1 (Merck Sharp & Dohme, published 2025):
Changes are numbered by the printed parent chain.

B1: 8E9 VHH-Fc (Fc fusion)
chain: QVQLVESGGGLVEAGGSLRLSCVASGSSSSINAMGWYRQAPGKQRELVASISHDGETKYANSVKGRFTISRGNAKNTIYLQMNSLKPEDTAVYYCVGDVAWVVVAGEYDYWGQGTQVTVSS
B2: 19E10 VHH-Fc (Fc fusion)
chain: QVQLVESGGGLVQPGGSLRLSCVASGSTISINSMGWYRQAPGKAREMVATITNDGPIKYADPVKGRFTISRDNPKNTVYLQMNSLKPEDTAVYYCVADRAYWLAGEWEYWGQGTQVTVSS
B3: 1E4 VHH-Fc (Fc fusion)
chain: QVLLVESGGGLVQAGGLLRLACSASGRTFTENVMGWFRQAPGKEREFVAAINWNTGSTYYSDSRKGRFTISKDNAKNTMFLQINNLKPEDTAVYYCGGTSSSYYYIGEFIPDYWGQGTQVTVSS
B4: 15H7 VHH-Fc (Fc fusion)
chain: QVQLVESGGRLVQAGGSLRLSCAAPGRTFRNLTLGWFRQAPGKEREFVASTSWPDDEMTYYTDSVKGRFTISRDNAKNTVYLQMNSLKPEDTAVYYCAAASWSGRSTLSYDYDYWGQGTQVTVST
B5: 5D7 VHH-Fc (Fc fusion)
chain: QVQLVESGGGLVQAGGSLRLSCAASGRTGSRYIMGWFRQAPGKEREFVAAINWRGDSTYYADSVKGRFTIARDNAKNTAYLQMNSLKPEDTAVYYCVADRGESYYYTRSTEYTYWGQGTQVTVSS
B6: 3D4 VHH-Fc (Fc fusion)
chain: QVQLVESGGGLVQPGGSLRLSCAASGFTLDLNSIGWFRQAPGKEREGVSCISPSGSRMHYADSVKGRFTISRDNAKNTVYLQMNSLKPEDTAVYYCATGSPSYHYCSMYGLEYDSWGQGTQVTVPS
B7: 19C10 VHH-Fc (Fc fusion)
chain: B6 chain with G55A, R57S, M58T, S100T, S115D, P125S
B8: 1A11 VHH-Fc (Fc fusion)
chain: QVQLVESGGGLVQAGGSLRLSCEVSGSIYSINSMGWYRQAPGKQRELVAGIVSDGRINYADSVKGRFTISRAKNTVYLQMNSLKPEDTAVYYCAADRAFVYAGDYDYLGQGTQVTVSS
B9: 7A9 VHH-Fc (Fc fusion)
chain: QVQLVESGGGLVQAGGSLRLSCSASGGTASRSAMGWFRQAPGKEREFVAGISRRNSGSTYVADSYEDSVKGRFTISRDNAKNTIYLQMNSLKPEDTAVYYCAAEPTLGWYVPRRSVEYEYWGQGTQVTVSS
B10: 9B2 VHH-Fc (Fc fusion)
chain: QVQLVESGGGLVQPGGSLRLSCAASGFTLDNYAIGWFRQAPGKEREGVSCISSSDGDTQYADSVKGRFTISRDNAKNTVYLQMNSLKPEDTAVYYCAVEKVYARSWFFHLCSELDFGSWGQGTQVTVSS
B11: 5A6 VHH-Fc (Fc fusion)
chain: QVQLVESGGGLAQAGGSLRLSCATSGLTFSMSAMGWFRQAPGNEREFVGVINWNGGSSRYADSVRGRFTISRDNAKNTVYLQMNSLKPEDTGVYYCAADALNIGTGEVNPRLYDYWGQGTQVMVSS

How the values were obtained:
[1] = target: SARS-CoV-2 Omicron spike on pseudovirus (SARS-CoV-2); assay: cell-based or functional assay
[2] = target: T1, Biotinylated CoV2 Spike ECD PreS-AVI protein (SARS-CoV-2, UniProt P0DTC2 14-1208); assay: Octet binning; competitor 11F8
[3] = target: T1, Biotinylated CoV2 Spike ECD PreS-AVI …; assay: Octet binning; competitor 7A9
[4] = target: T1, Biotinylated CoV2 Spike ECD PreS-AVI …; assay: Octet binning; competitor 1A11
[5] = target: T1, Biotinylated CoV2 Spike ECD PreS-AVI …; assay: Octet binning; competitor 15H7
[6] = target: T2, SARS-CoV-2 prefusion-stabilized spike protein (SARS-CoV-2-PreS) (SARS-CoV-2, UniProt P0DTC2 14-1208); assay: ELISA
[7] = target: T1, Biotinylated CoV2 Spike ECD PreS-AVI …; assay: Octet binning; competitor 8E9
[8] = target: T1, Biotinylated CoV2 Spike ECD PreS-AVI …; assay: Octet binning; competitor Std-D
[9] = target: T1, Biotinylated CoV2 Spike ECD PreS-AVI …; assay: Octet binning; competitor 15H1
[10] = target: T2, SARS-CoV-2 prefusion-stabilized spike …; assay: Biacore, apparent affinity
[11] = target: T1, Biotinylated CoV2 Spike ECD PreS-AVI …; assay: Octet binning; competitor 13C8
[12] = target: T1, Biotinylated CoV2 Spike ECD PreS-AVI …; assay: Octet binning; competitor Std-B
[13] = target: T1, Biotinylated CoV2 Spike ECD PreS-AVI …; assay: Octet binning; competitor Std-A
[14] = target: T1, Biotinylated CoV2 Spike ECD PreS-AVI …; assay: Octet binning; competitor 9B2
[15] = target: SARS-CoV-2 Gamma P.1 spike on pseudovirus (SARS-CoV-2); assay: cell-based or functional assay
[16] = target: SARS-CoV-2 Alpha B.1.1.7 spike on pseudovirus (SARS-CoV-2); assay: cell-based or functional assay
[17] = target: SARS-CoV-2 Beta B.1.351 spike on pseudovirus (SARS-CoV-2); assay: cell-based or functional assay

Binder | pseudovirus neutralization IC50 [1] | binning response [2] | binning response [3] | binning response [4] | binning response [5] | EC50 [6] | binning response [7] | binning response [8] | binning response [9] | Kd [10] | binning response [11] | binning response [12] | binning response [13] | binning response [14] | pseudovirus neutralization IC50 [15] | pseudovirus neutralization IC50 [16] | pseudovirus neutralization IC50 [17]
B1 | 429 nM | 0.11 | 0.39 | 0.09 | 0.11 | 0.08 nM | 0.08 | 0.04 | 0.13 | < 0.2 nM | 0.11 | 0.34 | 0.36 | 0.11 |  |  | 
B2 | 309 nM | 0.12 | 0.3 | 0.08 | 0.11 | 0.03 nM | 0.09 | 0.06 | 0.12 | < 0.2 nM | 0.11 | 0.22 | 0.26 | 0.11 | 5.9 nM | 7 nM | 3.1 nM
B3 |  | 0.11 | 0.26 | 0.09 | 0.11 | 0.04 nM | 0.09 | 0.08 | 0.11 | < 0.2 nM | 0.12 | 0.24 | 0.28 | 0.11 | 2.6 nM | 2.2 nM | 0.58 nM
B4 |  | 0.11 | 0.37 | 0.09 | 0.1 | 0.05 nM | 0.06 | 0.08 | 0.09 | < 0.2 nM | 0.08 | 0.32 | 0.36 | 0.08 |  |  | 
B5 | 221 nM | 0.12 | 0.31 | 0.12 | 0.15 | 0.11 nM | 0.1 | 0.12 | 0.16 | < 0.2 nM | 0.15 | 0.25 | 0.28 | 0.12 |  |  | 
B6 |  | 0.09 | 0.32 | 0.08 | 0.09 | 0.13 nM | 0.08 | 0.04 | 0.1 | < 0.2 nM | 0.1 | 0.31 | 0.34 | 0.09 | 0.59 nM | 1.5 nM | 1.1 nM
B7 |  | 0.12 | 0.36 | 0.08 | 0.1 | 0.06 nM | 0.1 | 0.04 | 0.1 | < 0.2 nM | 0.1 | 0.35 | 0.35 | 0.11 | 0.8 nM | 0.85 nM | 0.66 nM
B8 | 42 nM | 0.13 | 0.38 | 0.1 | 0.14 | 0.18 nM | 0.1 | 0.06 | 0.14 | < 0.2 nM | 0.11 | 0.34 | 0.35 | 0.13 | 6.4 nM | 6.6 nM | 4.1 nM
B9 | 44 nM | 0.32 | 0.06 | 0.32 | 0.34 | 0.16 nM | 0.37 | 0.46 | 0.37 | < 0.2 nM | 0.52 | 0.3 | 0.34 | 0.38 |  |  | 
B10 | 52 nM | 0.11 | 0.36 | 0.1 | 0.11 | 0.1 nM | 0.09 | 0.05 | 0.13 | < 0.2 nM | 0.12 | 0.32 | 0.32 | 0.1 | 21 nM | 22 nM | 4.2 nM
B11 |  | 0.09 | 0.37 | 0.09 | 0.1 | 0.14 nM | 0.09 | 0.03 | 0.12 | < 0.2 nM | 0.09 | 0.35 | 0.39 | 0.11 | 3.1 nM | 26 nM | 54 nM
